According to publication PMC8709873:

Biological target: myc-tagged LRRTM2 (UniProt O43300)
Assay: immunostaining of cells or tissue; concentrated conditioned media with Fc proteins (~1 μg/ml) added to CHO cells expressing myc-LRRTM + GFP, on ice 30 min, washed, fixed; Fc detected with Cy3 anti-human IgG, ratio Fc MGV/LRRTM MGV, normalized to control-Fc

UniProt O43300, sequence (O43300 34-516): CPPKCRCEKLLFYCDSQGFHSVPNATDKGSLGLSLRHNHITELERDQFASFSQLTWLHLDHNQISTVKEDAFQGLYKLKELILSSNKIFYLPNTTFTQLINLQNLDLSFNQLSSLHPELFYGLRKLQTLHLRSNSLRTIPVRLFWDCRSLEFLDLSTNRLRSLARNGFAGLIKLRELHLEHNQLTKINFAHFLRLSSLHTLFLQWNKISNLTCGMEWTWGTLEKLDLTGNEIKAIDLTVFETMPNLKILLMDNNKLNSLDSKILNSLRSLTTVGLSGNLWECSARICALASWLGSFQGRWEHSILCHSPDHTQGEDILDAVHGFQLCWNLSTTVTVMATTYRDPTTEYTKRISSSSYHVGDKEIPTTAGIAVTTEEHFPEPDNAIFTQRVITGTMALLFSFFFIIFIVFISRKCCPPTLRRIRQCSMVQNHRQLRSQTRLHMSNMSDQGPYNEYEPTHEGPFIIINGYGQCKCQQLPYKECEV

- fold increase in binding against WT: 2 fold
Substance: P469S HA-Nrxn1α-ecto-Fc (Fc fusion)
